For test [1], the target named is T1, interferon receptors on Daudi cells and A549 cells (Homo sapiens (Human)) (UniProt P17181).
T1 sequence 1: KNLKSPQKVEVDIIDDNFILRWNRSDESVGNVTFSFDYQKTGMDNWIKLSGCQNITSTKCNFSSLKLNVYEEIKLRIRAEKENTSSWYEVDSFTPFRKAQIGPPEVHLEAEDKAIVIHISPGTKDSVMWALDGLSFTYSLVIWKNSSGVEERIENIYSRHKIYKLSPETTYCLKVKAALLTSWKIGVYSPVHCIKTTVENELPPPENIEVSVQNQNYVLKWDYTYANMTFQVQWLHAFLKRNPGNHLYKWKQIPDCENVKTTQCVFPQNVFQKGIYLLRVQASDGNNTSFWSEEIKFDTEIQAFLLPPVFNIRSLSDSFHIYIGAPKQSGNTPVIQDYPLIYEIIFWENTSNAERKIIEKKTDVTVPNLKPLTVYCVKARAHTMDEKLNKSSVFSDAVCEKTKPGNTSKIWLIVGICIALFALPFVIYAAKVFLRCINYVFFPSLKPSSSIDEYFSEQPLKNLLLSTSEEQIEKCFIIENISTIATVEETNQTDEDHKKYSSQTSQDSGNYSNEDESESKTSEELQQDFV
T1 sequence 2: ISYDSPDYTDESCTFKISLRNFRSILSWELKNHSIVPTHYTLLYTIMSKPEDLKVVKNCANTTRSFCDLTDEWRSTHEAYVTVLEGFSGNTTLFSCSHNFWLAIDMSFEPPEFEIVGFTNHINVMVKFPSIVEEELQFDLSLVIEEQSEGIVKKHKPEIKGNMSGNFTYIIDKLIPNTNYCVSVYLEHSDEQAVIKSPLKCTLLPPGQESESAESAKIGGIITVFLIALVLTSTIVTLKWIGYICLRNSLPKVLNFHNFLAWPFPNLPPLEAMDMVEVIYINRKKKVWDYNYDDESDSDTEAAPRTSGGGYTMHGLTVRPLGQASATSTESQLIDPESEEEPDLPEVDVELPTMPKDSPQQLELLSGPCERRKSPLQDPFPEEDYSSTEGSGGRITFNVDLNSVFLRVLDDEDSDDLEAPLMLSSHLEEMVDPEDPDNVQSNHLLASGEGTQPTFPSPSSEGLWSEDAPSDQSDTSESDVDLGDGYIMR

The target in test [2] is T1, interferon receptors on Daudi cells and A549 cells (Homo sapiens (Human)). The source holds these as a separate data set.

In turn, wild type recombinant IFN-β (ligand) registered a specific activity in the Cytopathic Effect (CPE) assay for antiviral activity (EMC virus) in test [1] of 2e+08 units/mg.

B1: IFN-β(phe101) (ligand)
chain: MSYNLLGFLQRSSNFQCQKLLWQLNGRLEYCLKDRMNFDIPEEIKQLQQFQKEDAALTIYEMLQNIFAIFRQDSSSTGWNETIVENLLANVYHQINHLKTFLEEKLEKEDFTRGKLMSSLHLKRYYGRILHYLKAKEYSHCAWTIVRVEILRNFYFINRLTGYLRN
modifications: 125I label (chloramine T method) where used as the labelled ligand in the receptor binding assay; unlabelled as competitor and in the antiviral assays
Turning to B1, in test [2], the specific activity in the antiviral assay relative to recombinant wild type IFN-β came out at 2.5 fold. This molecule also showed a specific activity in the Cytopathic Effect (CPE) assay for antiviral activity (EMC virus) in test [1] of 4.8e+08 U/mg.

The record behind these values is US6127332.
